These results are taken from US20230080534A1 (SHANGHAI BIOTROY BIOTECHNIQUE, published 2023).

No end group written: not given here.

The target of one experiment is T1, QIEKLVEGASQIQ (not fully specified).
T1 construct: member of the group m41; the text speaks of glycine substitution, the sheet prints alanine
T1 peptide: QIEKLVEGASQIQ
The experiment is described as follows: ELISA, immobilized peptide QIEKLVEGASQIQ
The text has this:
(§1) FIG. 20 depicts the value detected by ELISA, i.e., OD₄₅₀ absorbance. […] This experiment is used to determine the precise amino acid epitopes that different monoclonal antibodies bind to, and the relative importance of each amino acid to the binding antibody.
(In general: In an ELISA, binding on a coated surface is turned into a signal by an enzyme label.)

The target in experiment [1] is T2, human SEMG2 full-length protein (human, UniProt Q02383 24-582, limits assumed).
T2 construct: also called SEMG2 protein; semenogelin 2
T2 sequence: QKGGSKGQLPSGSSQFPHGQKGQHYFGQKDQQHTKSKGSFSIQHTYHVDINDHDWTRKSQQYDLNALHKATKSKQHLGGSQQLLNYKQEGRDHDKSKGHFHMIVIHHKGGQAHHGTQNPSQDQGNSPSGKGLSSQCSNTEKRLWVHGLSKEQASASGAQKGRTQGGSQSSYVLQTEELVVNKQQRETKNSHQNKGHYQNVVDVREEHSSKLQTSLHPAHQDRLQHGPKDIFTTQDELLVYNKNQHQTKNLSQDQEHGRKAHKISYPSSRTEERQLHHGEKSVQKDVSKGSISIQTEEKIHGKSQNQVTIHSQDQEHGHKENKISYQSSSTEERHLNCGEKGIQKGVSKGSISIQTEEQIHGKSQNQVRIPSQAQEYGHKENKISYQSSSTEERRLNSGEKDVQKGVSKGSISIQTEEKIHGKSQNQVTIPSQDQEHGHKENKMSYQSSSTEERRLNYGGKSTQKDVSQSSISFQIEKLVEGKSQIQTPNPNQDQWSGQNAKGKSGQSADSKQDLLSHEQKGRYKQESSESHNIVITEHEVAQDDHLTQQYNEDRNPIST
The experiment is described as follows: biolayer interferometry (ForteBio Blitz or Gator). As to the method: The equilibrium dissociation constant (KD) of the antibody of the present invention binding to human SEMG2 was determined by biolayer interferometry (ForteBio Bltz or Gator instrument). […] 100 μl of SD buffer, antibody and SEMG2 were added to a 96-well black polystyrene half area microplate, respectively. Select the sensor location based on the sample location layout. KD values were analyzed using molecular interaction analysis software. In the experiments of the assays, the affinity constants of murine monoclonal antibodies and human antibodies H88-67, H88-93 and H88-96 are shown in Table 8, and the affinity and dissociation curves of SEMG2 and corresponding proteins are shown in FIG. 25.

A further experiment deals with T3, QIEALVEGKSQIQ (not fully specified).
T3 construct: member of the group m41; the text speaks of glycine substitution, the sheet prints alanine
T3 peptide: QIEALVEGKSQIQ
Description: ELISA, immobilized peptide QIEALVEGKSQIQ
Text: as §1

For another experiment, the target named is T4, QIEKLVEGKAQIQ (not fully specified).
T4 construct: alanine at this position
T4 peptide: QIEKLVEGKAQIQ
Description: ELISA, immobilized peptide QIEKLVEGKAQIQ
Text: as §1

The next experiment deals with T5, QIEKLVAGKSQIQ (not fully specified).
T5 construct: member of the group m41; the text speaks of glycine substitution, the sheet prints alanine
T5 peptide: QIEKLVAGKSQIQ
The experiment is described as follows: ELISA, immobilized peptide QIEKLVAGKSQIQ
Text: as §1
To further precisely define the exact epitopes (specific to the level of single amino acid) to which blocking antibodies MM02, MM05, MM07, MM08, MM13, MM14 bind, corresponding ELISA analysis method was established. […] Anti-mouse or anti-rabbit secondary antibodies were then used to detect the corresponding bound antibodies.

In another experiment the target is T6, QIEKLVEGKSQAQ (not fully specified).
T6 construct: member of the group m41; the text speaks of glycine substitution, the sheet prints alanine
T6 peptide: QIEKLVEGKSQAQ
Description: ELISA, immobilized peptide QIEKLVEGKSQAQ
Text: as §1

In a further experiment the target is T7, QIEKLAEGKSQIQ (not fully specified).
T7 construct: member of the group m41; the text speaks of glycine substitution, the sheet prints alanine
T7 peptide: QIEKLAEGKSQIQ
Description: ELISA, immobilized peptide QIEKLAEGKSQIQ
Text: as §1

The target in another experiment is T8, QIEKAVEGKSQIQ (not fully specified).
T8 construct: alanine at this position
T8 peptide: QIEKAVEGKSQIQ
Description: ELISA, immobilized peptide QIEKAVEGKSQIQ
Text: as §1

Another experiment addresses T9, QIEKLVEGKSAIQ (not fully specified).
T9 construct: alanine at this position
T9 peptide: QIEKLVEGKSAIQ
The experiment is described as follows: ELISA, immobilized peptide QIEKLVEGKSAIQ
Text: as §1

The target of experiment [2] is T10, SEMG2(497-509) polypeptide QIEKLVEGKSQIQ (human).
T10 peptide: QIEKLVEGKSQIQ
The experiment is described as follows: ELISA, immobilized peptide QIEKLVEGKSQIQ
Text: as §1

A further experiment concerns the target T11, QIAKLVEGKSQIQ (not fully specified).
T11 construct: member of the group m41; the text speaks of glycine substitution, the sheet prints alanine
T11 peptide: QIAKLVEGKSQIQ
The experiment is described as follows: ELISA, immobilized peptide QIAKLVEGKSQIQ

A further experiment addresses T12, QAEKLVEGKSQIQ (not fully specified).
T12 construct: member of the group m41; the text speaks of glycine substitution, the sheet prints alanine
T12 peptide: QAEKLVEGKSQIQ
The experiment is described as follows: ELISA, immobilized peptide QAEKLVEGKSQIQ
Text: as §1

Another experiment concerns the target T13, QIEKLVEAKSQIQ
T13 construct: member of the group m41; position 504 is glycine in SEMG2 and the sheet prints alanine there
T13 peptide: QIEKLVEAKSQIQ
Description: ELISA, immobilized peptide QIEKLVEAKSQIQ
Text: as §1

The target in experiment [3] is T2, human SEMG2 full-length protein. The experiment is described as follows: ELISA, plate coated with SEMG2 protein, anti-mouse secondary antibody; the EC50 table prints no unit, the axis is log (antibody concentration, nM).
For the next experiment, the target named is T14, QIEKLVEGKSQIA (not fully specified).
T14 construct: alanine at this position
T14 peptide: QIEKLVEGKSQIA
The experiment is described as follows: ELISA, immobilized peptide QIEKLVEGKSQIA
Text: as §1

The next experiment deals with T15, AIEKLVEGKSQIQ (not fully specified).
T15 construct: member of the group m41; the text speaks of glycine substitution, the sheet prints alanine
T15 peptide: AIEKLVEGKSQIQ
The experiment is described as follows: ELISA, immobilized peptide AIEKLVEGKSQIQ
Text: as §1

The next experiment has as its target T16, SEMG2(442-453) fragment (human).
T16 peptide: IHGKSQNQVTIP
Description: ELISA, immobilized antigen SEMG2 (442-453). The text has this:
(§2) To clearly distinguish the binding epitopes of blocking antibodies (i.e., antibodies that can inhibit the binding between SEMG2 and CD27) and non-blocking antibodies, a corresponding ELISA analysis method was established. […] Anti-mouse or anti-rabbit secondary antibodies were then used to detect the corresponding bound antibodies.

The target in experiment [4] is T10, SEMG2(497-509) polypeptide QIEKLVEGKSQIQ
Description: ELISA, immobilized antigen SEMG2 (497-509).
Text: as §2

For another experiment, the target named is T17, SEMG2(563-574) fragment (human).
T17 peptide: VAQDDHLTQQYN
The experiment is described as follows: ELISA, immobilized antigen SEMG2 (563-574).
Text: as §2

The target in experiment [5] is T2, human SEMG2 full-length protein. Description: ELISA, immobilized antigen SEMG2 (1-582).
Text: as §2

The next experiment has as its target T18, SEMG2(354-403) fragment (human).
T18 peptide: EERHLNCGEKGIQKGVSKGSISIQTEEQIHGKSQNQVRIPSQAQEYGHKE
The experiment is described as follows: ELISA, immobilized antigen SEMG2 (354-403).
Text: as §2

The target of experiment [6] is T2, human SEMG2 full-length protein. Description: ELISA (FIG. 21B-D).
In experiment [7] the target is T19, BSA-conjugated human SEMG2 (497-509) polypeptide (human, also: coupled to BSA, site not given here).
T19 peptide: QIEKLVEGKSQIQ
The experiment is described as follows: ELISA (FIG. 21B-D).

The target of experiment [8] is T19, BSA-conjugated human SEMG2 (497-509) …. The experiment is described as follows: ELISA on BSA-S2 (497-509); curve without upper plateau; the EC50 table prints no unit, the axis is log (antibody concentration, nM).
For experiment [9], the target named is T2, human SEMG2 full-length protein. Description: ELISA on SEMG2; the EC50 table prints no unit, the axis is log (antibody concentration, nM).

B1: MM13 (antibody, V domains shown)
VH: EVQLQQSGAELVRSGASVKLSCTASGFNIKDYYMHWMKQRPEQGLEWIGWIDPENGDNEYAPKFQGKATMTADTSSNTAYLQLSSLTSEDTAVYYCNVGGAHYWGQGTTLTVSS
VL: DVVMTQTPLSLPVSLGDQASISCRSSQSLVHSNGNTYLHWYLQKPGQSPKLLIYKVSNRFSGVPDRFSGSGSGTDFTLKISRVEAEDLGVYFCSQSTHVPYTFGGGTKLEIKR
Regarding B1, the OD450 absorbance in the experiment with QIEKLVEGASQIQ is 0.818; with QIEALVEGKSQIQ, 0.712; in the experiment with QIEKLVEGKAQIQ, 0.211; in the experiment with QIEKLVAGKSQIQ, 0.738; in the experiment with QIEKLVEGKSQAQ, 0.699; in the experiment with QIEKLAEGKSQIQ it was 0.658. In addition, the OD450 absorbance with QIEKAVEGKSQIQ is 0.049; with QIEKLVEGKSAIQ, 1.19; in experiment [2], 1.23; in the experiment with QIAKLVEGKSQIQ it was 0.67; in the experiment with QAEKLVEGKSQIQ, 0.467; in the experiment with QIEKLVEAKSQIQ, 0.842. Moreover, the OD450 absorbance with QIEKLVEGKSQIA is 1.25; in the experiment with AIEKLVEGKSQIQ, 0.48. Also, the equilibrium dissociation constant (Kd) – broadly, the free concentration of one partner at which half of the binding sites on the other are occupied at equilibrium, for simple one-to-one binding – in experiment [1] came to 0.693 nM. Moreover, in [3], the EC50 (commonly the concentration that produces a half-maximal response) turned out to be 0.382 nM. Also, the A450 absorbance with SEMG2(442-453) fragment was 0.008; in experiment [4], 1.14; in the experiment with SEMG2(563-574) fragment it was 0.01; in experiment [5], 1.13; with SEMG2(354-403) fragment it was 0.001. Moreover, the binding result with SEMG2(442-453) fragment, in the experiment with SEMG2(563-574) fragment and in the experiment with SEMG2(354-403) fragment was “no binding” throughout.

B2: 67-3-67-6 (antibody, V domains shown)
VH: QVQLLESGGGVVQPGRSLRLSCAASGFTFSSYAMHWVRQASGKGLEWVAVISYDGSNKYYADSVKGRFTISRDNSKNTLYLQMNSLRAEDTAVYYCARMDNHGSPDYWGQGTLVTVSS
VL: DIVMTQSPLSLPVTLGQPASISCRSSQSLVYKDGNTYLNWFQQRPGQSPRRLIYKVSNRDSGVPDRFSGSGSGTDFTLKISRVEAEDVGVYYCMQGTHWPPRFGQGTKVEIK
For B2, the “fold higher affinity than the parent antibody (H88-67)” value in experiment [6] and in experiment [7] was above 10 fold each time. Moreover, the EC50 came out at 12.6 nM in experiment [8] and 0.313 nM in experiment [9].

B3: 67-6-67-6 (antibody, V domains shown)
VH: QVQLLESGGGVVQPGRSLRLSCAASGFTFSSYAMHWVRQASGKGLEWVAVISYDGSNKYYADSVKGRFTISRDNSKNTLYLQMNSLRAEDTAVYYCARMDGHGSPDYWGQGTLVTVSS
VL: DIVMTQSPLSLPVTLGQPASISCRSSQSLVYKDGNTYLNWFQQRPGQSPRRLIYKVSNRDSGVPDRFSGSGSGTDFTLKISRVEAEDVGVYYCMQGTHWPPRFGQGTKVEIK
On to B3, for which the “fold higher affinity than the parent antibody (H88-67)” value in [6] and in [7] was above 10 fold in each case. For the same molecule, the EC50 in experiment [8] was found to be 38.5 nM; in experiment [9] it was 0.619 nM.

B4: MM14 (antibody, IgG2b, V domains shown)
VH: QVQLKESGPGLVAPSQSLSITCTVSGFSLTSYAVSWVRQPPGKGLEWLGIIWGDGSTNYHSALISRLSISKDNSKSQVFLKLNSLQTDDTATYYCAKQERFSDGYYDGFAYWGQGTLVTVSA
VL: QIVLTQSPAIMSASPGEKVTITCSASSSVSYMHWFQQKPGTSPKLWIYSTSNLASGVPARFSGSGSGTSYSLTISRMEAEDAATYYCQQRSSYPFTFGSGTKLEIKR
Consider B4, for which the OD450 absorbance with QIEKLVEGASQIQ worked out at 0.621; with QIEALVEGKSQIQ, 0.777; with QIEKLVEGKAQIQ it was 0.022; with QIEKLVAGKSQIQ, 0.766; in the experiment with QIEKLVEGKSQAQ, 0.588; in the experiment with QIEKLAEGKSQIQ it was 0.804. Also, the OD450 absorbance is 0.161 with QIEKAVEGKSQIQ; 1.18 with QIEKLVEGKSAIQ; 1.17 in experiment [2]; 0.776 in the experiment with QIAKLVEGKSQIQ; 0.54 in the experiment with QAEKLVEGKSQIQ; 0.47 with QIEKLVEAKSQIQ. Moreover, the OD450 absorbance with QIEKLVEGKSQIA came out at 1.23; with AIEKLVEGKSQIQ it was 0.813. In experiment [1], this molecule had a Kd of 1.44 nM. In experiment [3], the EC50 came to 0.507 nM. Besides, the A450 absorbance in the experiment with SEMG2(442-453) fragment was 0.007; in [4], 1.11; in experiment [5], 1.12; with SEMG2(354-403) fragment, 0.003. Moreover, the binding result with SEMG2(442-453) fragment, in the experiment with SEMG2(563-574) fragment and with SEMG2(354-403) fragment was “no binding” each time.
